T1: BAKΔTM (human, UniProt Q16611 1-186)
T1 chain: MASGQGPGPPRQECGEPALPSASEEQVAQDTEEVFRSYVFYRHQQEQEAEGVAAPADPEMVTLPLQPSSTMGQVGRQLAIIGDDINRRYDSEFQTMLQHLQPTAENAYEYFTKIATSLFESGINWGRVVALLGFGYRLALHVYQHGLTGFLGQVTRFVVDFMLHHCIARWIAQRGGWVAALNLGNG


Biological target: T1, BAKΔTM
Assay: SPR

| Kd [µM] | Binder |
| --- | --- |
| > 10 | NLWAAQRYGRELRRMSDEFVDSFKK [BAD BH3 peptide] |
| > 10 | MEGSDALALRLACIGDEMDVSLRAPR [BIK BH3 peptide] |
